For the assay, the target named is BMPs (in the Hep3B hepcidin bioassay).

B1: Full-length ERFE ΔCollagen, 43-354 del109-125, FLAG-tagged (natural protein)
chain: EPPPGNELPRGPGESRAGPAARPPEPTAERAHSVDPRDAWMLFVRQSDKGVNGKKRSRGKAKKLKFIIPPEALLKEFQLLLKGAVRQRERAEPEPCTCGPAGPVAASLAPVSATAGEDDDDVVGDVLALLAAPLAPGPRAPRVEAAFLCRLRRDALVERRALHELGVYYLPDAEGAFRRGPGLNLTSGQYRAPVAGFYALAATLHVALGEPPRRGPPRPRDHLRLLICIQSRCQRNASLEAIMGLESSSELFTISVNGVLYLQMGQWTSVFLDNASGCSLTVRSGSHFSAVLLGV
For the molecule B1, the IC50 of suppression of hepcidin mRNA (qPCR) in Hep3B cells amounted to 10 nM.

These data come from publication PMC10692919.
